Measurements published in patent publication US20200101171A1.

Target: IGF-1 receptor (UniProt P08069)
Assay: SPA competition by the method of Experimental Example 1; text: relative to human native IGF-1; curve did not reach saturation at the highest concentration

native insulin-3.4K PEG-immunoglobulin Fc conjugate, sequence (chain): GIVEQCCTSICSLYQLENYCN
native insulin-3.4K PEG-immunoglobulin Fc conjugate, sequence (chain): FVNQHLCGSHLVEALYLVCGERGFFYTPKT
UniProt P08069, sequence (P08069 31-1367 limits assumed): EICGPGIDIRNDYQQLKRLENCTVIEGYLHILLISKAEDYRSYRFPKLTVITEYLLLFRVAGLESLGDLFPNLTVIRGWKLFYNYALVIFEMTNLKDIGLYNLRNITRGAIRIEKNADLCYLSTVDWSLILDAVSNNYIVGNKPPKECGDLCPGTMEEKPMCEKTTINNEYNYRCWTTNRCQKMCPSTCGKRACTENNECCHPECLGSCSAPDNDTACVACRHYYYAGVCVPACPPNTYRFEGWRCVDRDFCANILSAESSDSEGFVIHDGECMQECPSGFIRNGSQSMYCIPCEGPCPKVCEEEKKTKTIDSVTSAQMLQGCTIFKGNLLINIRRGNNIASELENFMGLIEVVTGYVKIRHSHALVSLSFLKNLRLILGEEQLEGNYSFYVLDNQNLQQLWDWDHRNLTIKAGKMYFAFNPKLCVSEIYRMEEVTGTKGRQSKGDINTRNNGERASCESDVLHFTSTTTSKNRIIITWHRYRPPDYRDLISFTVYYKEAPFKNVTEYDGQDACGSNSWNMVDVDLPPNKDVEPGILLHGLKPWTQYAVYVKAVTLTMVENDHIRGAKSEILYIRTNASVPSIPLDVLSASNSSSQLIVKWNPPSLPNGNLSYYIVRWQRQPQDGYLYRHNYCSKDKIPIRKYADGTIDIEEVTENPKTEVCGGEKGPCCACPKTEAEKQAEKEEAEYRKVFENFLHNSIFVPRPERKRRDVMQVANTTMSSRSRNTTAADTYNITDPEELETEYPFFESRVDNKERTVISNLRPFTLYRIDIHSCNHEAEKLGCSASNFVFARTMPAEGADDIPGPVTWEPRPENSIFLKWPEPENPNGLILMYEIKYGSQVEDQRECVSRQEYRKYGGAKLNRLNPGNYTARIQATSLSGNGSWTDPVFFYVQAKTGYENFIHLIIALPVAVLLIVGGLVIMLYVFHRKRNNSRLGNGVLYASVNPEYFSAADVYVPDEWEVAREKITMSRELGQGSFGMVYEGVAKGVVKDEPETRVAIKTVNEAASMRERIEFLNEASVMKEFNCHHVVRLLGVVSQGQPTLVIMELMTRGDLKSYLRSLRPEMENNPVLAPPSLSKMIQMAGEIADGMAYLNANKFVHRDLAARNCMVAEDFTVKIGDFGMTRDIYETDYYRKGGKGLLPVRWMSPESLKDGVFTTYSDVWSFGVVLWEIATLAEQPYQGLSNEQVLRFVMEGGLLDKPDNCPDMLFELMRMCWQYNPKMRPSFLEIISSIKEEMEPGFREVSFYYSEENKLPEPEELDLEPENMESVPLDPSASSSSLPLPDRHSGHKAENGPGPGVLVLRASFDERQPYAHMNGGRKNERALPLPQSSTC

Receptor binding affinity (%, SPA method), IGF-1R: < 1%
Substance: native insulin-3.4K PEG-immunoglobulin Fc conjugate
